# Assay results from the nanobody polyreactivity screen of Harvey et al. (2022).
# Experiment: yeast display, Sf9 membrane polyspecificity reagent, FACS + sequencing; frameworks hold sequencing errors
# Summary of the method: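 Nanobodies from a synthetic yeast display library (Saccharomyces cerevisiae BJ5465), induced 36–48 hours with galactose, were stained 1 hour at 4 °C with 10% biotinylated, detergent-solubilized Sf9 membrane reagent, enriched on streptavidin microbeads, then FACS-sorted. Anti-HA (expression) and streptavidin (reagent binding) fluorescence set low and high (top ~1%) gates. Polyreactivity labels come from the gate of origin. Genes were colony-PCR amplified, MiSeq 2 × 250 sequenced and filtered by CDR length.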
row,Sequence,polyreactivity (PSR sort gate)
1,QVQLVESGGGLVQAGGSLRLSCAASGSTFGRYAMGWYRQAPGKERELVAAINFNGGRTYYADSVKGRFTISRDNAKNTVYLQMNSLKPEDTAVYYCNALQQYALSRYYWGQGTQVTVSS,high polyreactivity
2,QVQLVESGGGLVQAGGSLRLSCAASGSTFGRYAMGWYRQAPGKERELVAAITRGGSTNYADSVKGRFTISRDNAKNTVYLPMNSLKPEDTAVYYCAADKPGIFSRFDYWGQGTQVTVSS,low polyreactivity
3,QVQLVESGGGLVQAGGSLRLSCAASGSTFGRYAMGWYRQAPGKEREMVAGITYGSTYYADSVKGRFTISRDNAKNTVYLQMNSLKPEDTAVYYCAADLSYTCVHGYRSDTLMDYWGQGTQVTVSS,low polyreactivity
4,QVQLVESGGGLVQAGGSLRLSCAASGSTFGSNAMGWYRQAPGKERELVAAITGGDVSTYYADSVKGRFTISRDNAKNTDYLQMNSLKPEDTAVYYCNAEYARPAMDYWGQGTQVTVSS,low polyreactivity
5,QVQLVESGGGLVQAGGSLRLSCAASGSTFGSYAMGLYRQAPGKERELVAAITQIGGSTYYADSVKGRFTISRDNAKNTVYLQMNSLKPEDTAVYYCAVTAGRGGYPQGGVTRGYWGQGTQVTVSS,high polyreactivity
6,QVQLVESGGGLVQAGGSLRLSCAASGSTFGSYAMGWYRQAPGKEREFVATINTSNDRTYYADSVKGRFTISRDKAKNTVYLQMNSLKPEDTAVYYSNVLVYNVHTRGYWGQGTQVTVSS,high polyreactivity
7,QVQLVESGGGLVQAGGSLRLSCAASGSTFGSYAMGWYRQAPGKERELVAAIRRGGSTTYADSVKGRFTISRDNAKNTVYLQMYSLKPEDTAVYYCAAPELNEGLPLDYWGQGTQVTVSS,low polyreactivity
8,QVQLVESGGGLVQAGGSLRLSCAASGSTFGSYAMGWYRQAPGKERELVAAITQIGGSTYYADSVKGRFTISRDKAKNTVYLQMNSLKPEDTAVYYCAARYRYPGYYYWGQGTQVTVSS,high polyreactivity
9,QVQLVESGGGLVQAGGSLRLSCAASGSTFGSYGMGWYRQAPGKEREVVAVITYSGDRTYYADSVKGRFTISRDNAKNTVYLQMNSLKPEDTAVYYCAADRSYRVSEYDYWGQGTQVTVSS,low polyreactivity
10,QVQLVESGGGLVQAGGSLRLSCAASGSTFGTYAMGWYRQAPGKERELVAAISRRGGSTYYADSVKGRFTISRDNAKNTVYLQMNSLKPEDTAVDYCAARNFHPDDNYWGQGTQVTVSS,high polyreactivity
11,QVQLVESGGGLVQAGGSLRLSCAASGSTFGVNAMGWYRQAPGKERELVAAISSSGSSTYADSVKGRFTISRDNAKNTVYLQMNSLKPEDTAVYYCAAQSPAYYTKSYWGQGTQVTVSS,low polyreactivity
12,QVQLVESGGGLVQAGGSLRLSCAASGSTFGVNAMGWYRQAPGKERELVAAISSSGSSTYADSVKGRFTISRDNAKNTVYLQMNSLKPEDTAVYYCNKTTLLTVEYDYWGQGTQVTVSS,low polyreactivity
13,QVQLVESGGGLVQAGGSLRLSCAASGSTFGVNAMGWYRQAPGKERELVAAITRRGSSTYYADSVKGRFTNSRDNAKNTVYLQMNSLKPEDTAVYFCAADLHYRPGFRYGYWGQGTQVTVSS,high polyreactivity
14,QVQLVESGGGLVQAGGSLRLSCAASGSTFGVNAMGWYRQAPGKERELVAAITWSGDTTYYADSVKGRFTISRDNAKNTVYLQMNSLKPEDSAVYYCATYYYYPSWYLLYGDYNYWGQGTQVTVSS,low polyreactivity
15,QVQLVESGGGLVQAGGSLRLSCAASGSTFGVNAMGWYRQAPGKERELVASIRKRGGTTYYADSVKGRFTISRDNAKNTVYLQMNSLKPEDTAVYYCAAQYGDEVDYWGQGTQVTVSS,high polyreactivity
16,QVQLVESGGGLVQAGGSLRLSCAASGSTFGVYAMGWYRQAPGKDRELVAAISRSGGRTYYADSVKGRFTISRDNAKNSVYLQMNSLKPEDTAVYYCALYGGLGDRFRPRYYWGQGTQVTVSS,high polyreactivity
17,QVQLVESGGGLVQAGGSLRLSCAASGSTFGVYAMGWYRQAPGKERELVAAIRWSSGSTYYADSVKGRFTISRDNAKNTVYLQMNSLKPEDTAVYYCAKTRGIYNIRFGYWGQGTQVTVSS,high polyreactivity
18,QVQLVESGGGLVQAGGSLRLSCAASGSTFGWYAMGWYRQAPGKERELVASITWDGGRTYYADSVKGRFTISRDNAKNTVYLLMNSLKPEDTAVYYCAARGVSSPLNYWGQGTQVTVSS,low polyreactivity
19,QVQLVESGGGLVQAGGSLRLSCAASGSTFGWYTMGWYRQSPGKERELVAAITSRGTRTSYADSVKGRFTISRDYAKNTVYLQMNSLKPEDTAVYYCAARVFRGLGEYYWGQGTQVTVSS,high polyreactivity
20,QVQLVESGGGLVQAGGSLRLSCAASGSTFGWYVMGWYRQAPGKERELVAAISQRGGRTYYADSVKGRFSISRDNAKNTVYLQMNSLKPEDTAVYYCAAPGVRVGPTFPRQGYDYWGQGTQVTVSS,high polyreactivity
21,QVQLVESGGGLVQAGGSLRLSCAASGSTFGWYVMGWYRQAPGKEREYVASISGSGGSTYYADSVKGRFTISRDNAKNTVYLQMNSLKPEDTAVYYCAAETGWYDDWSIYDYWGHGTQVTVSS,low polyreactivity

row,Sequence,polyreactivity (PSR sort gate)
1,QVQLVESGGGLVQAGGSLRLSCAASGSTFGWYVMGWYRQAPGTERELVASITGSGGSTYYADSVKGRFTISRDNAKNTVYLQMNSLKPVDSAVYYCGADTGWYDDWTHDYWGQGTQVTVSS,low polyreactivity
2,QVQLVESGGGLVQAGGSLRLSCAASGSTFGYNAMGWYRPAPGKERELVAAISWNGGSTYYADSVKGRFTISRDNAKTTVYLQMNSLKPEDTAVYYCAAEHRGYFTRYDYWGQGTQVTVSS,low polyreactivity
3,QVQLVESGGGLVQAGGSLRLSCAASGSTFGYNAMGWYRQAPGKERELVADITWRGGRTYYADSVKGRFTISRDNAKNTVYLQMNSLKPEDTAVYYCAATSRGSGQRPGEAIIDYYYWGLGTQVTVSS,high polyreactivity
4,QVQLVESGGGLVQAGGSLRLSCAASGSTFGYNGMGWYRQAPGKVRELVAAISGGARTYADSVKGRFTISRDNAKNTVYLQMNSLKPEDTAVYYCAADSPVSVTADDGYWGQGTQVTVSS,low polyreactivity
5,QVQLVESGGGLVQAGGSLRLSCAASGSTFGYYAMGWYRQAPGKEREFVAAITYGDGNTYYADSVKGRFTISRDNAKNTVYLQMNSLKPEDTAVYYCAKYYWAPTGAHGGYGYWGQGTQVTVSS,low polyreactivity
6,QVQLVESGGGLVQAGGSLRLSCAASGSTFGYYAMGWYRQAPGKERELVAAISYNTGSTYYADSVKGRFTISRDNAKNTVYLQMNSLKPEDTAVFYCAASRSRYSVNWYNYWGQGTQVTVSS,high polyreactivity
7,QVQLVESGGGLVQAGGSLRLSCAASGSTFGYYAMGWYRQAPGKERELVATINRSGGSTYYADSVKGRFSISRDNAKNTVYLQMNSLKPEDTAVYYCNKLAYAGFGYIGSGYWGQGTQVTVSS,low polyreactivity
8,QVQLVESGGGLVQAGGSLRLSCAASGSTFGYYAMGWYRQAPGKERELVAVIRRGGSTNYADSVKGRFTISRDNAKNTVYLQMNSLKPEDTAVYYCAKSQRGTVYSYYYWGQGTQVTVSS,high polyreactivity
9,QVQLVESGGGLVQAGGSLRLSCAASGSTFGYYAMGWYRQAPGKERELVAVITSGGSTYYADSVKGRFTISRDNAKNTVFLQMNSLKPEDTAVYYCYARVQAVHYGYWGQGTQVTVSS,high polyreactivity
10,QVQLVESGGGLVQAGGSLRLSCAASGSTFGYYAMRWSRQAPGKERELVAAISGSGGSTYYADSVKGRFTISRDNAKNTVYLQMNSLKQEDTAVYYCATSWAGSEYYYWGQGTQVTVSS,high polyreactivity
11,QVQLVESGGGLVQAGGSLRLSCAASGSTFGYYTMGWYRQAHGKERELVAAISWGCGSTYYADSVKGRFTISRDNAKNTVYLQMNSLIPEDTAVYYCARTPVTSYKDDFYYWGQGTQVTVSS,low polyreactivity
12,QVQLVESGGGLVQAGGSLRLSCAASGSTFGYYTMGWYRQAPGKERELVAAISWSGGSTYYADSVKGRFTISRDNAKNTVYLQMNSLKPEDTAVYYCAALGYTYKYYSYYWGQGTQVTVSS,high polyreactivity
13,QVQLVESGGGLVQAGGSLRLSCAASGSTFGYYTMGWYRQAPGKERELVAAITWSGGSTYYADSVKGRFTISRDNAKNTVYLQMNSLKPEDTAVYYCADDDYWTPFGYWGQGTQVTVSS,low polyreactivity
14,QVQLVESGGGLVQAGGSLRLSCAASGSTFGYYTMGWYRQAPGKERELVASIDVSGDSTSYADSVKGRFTISRDNAKNTVYVQMNSLKPEDTAVYYCNTGRYPTSPTHNYWGQGTHVTVSS,low polyreactivity
15,QVQLVESGGGLVQAGGSLRLSCAASGSTFHGYTIGWSRQAPGKERELVAAISSRGTSTYYADSVKGRFTISRDNAMNTVYLQMNSLKTEDTAVYYCATRGWDKYWGQGTQVTVSS,high polyreactivity
16,QVQLVESGGGLVQAGGSLRLSCAASGSTFHLYAMGWNRQAPGKEREFVAAIRGRGGNTYADSVKGRFTISRDNAKNSGYLQMNSLKPEDTAVYYCAARTHYDSDYWGQGTQVTVSS,low polyreactivity
17,QVQLVESGGGLVQAGGSLRLSCAASGSTFHLYAMGWYRQAPGKEREFVAAIRGRGGNTYADSVKGRFTISRDNAKNTVYLQMHSLKPEDTAVYYCAAPLLRDLRSPYSYNYWGQGTQVTVSS,low polyreactivity
18,QVQLVESGGGLVQAGGSLRLSCAASGSTFHPNGMGWYRQAPGQEREFVAAIRRSGGSTYYADSVKGRFTISRDNAKNTVYLQMNSLKPEDTAVYYCAAKHYYYSPYVRYDPPPGYYWGQGTQVTVSS,high polyreactivity
19,QVQLVESGGGLVQAGGSLRLSCAASGSTFHRNSMGWYRQAPGKERELVASISIGGSTNYADSVKGRFTISRDNAKNTVYLQMNSLKPEDTAVYYCATEPNPRRPRVDYDYWGQGTQVTVSS,low polyreactivity
20,QVQLVESGGGLVQAGGSLRLSCAASGSTFHRYTMGWYRQAPGKEWELVAAISWSGGSTYYADSVKGRFTISRDNAKNTVYLQMNSLKPEDTAVYYCAAVKPAEALDYWGQGTQVTVSS,high polyreactivity
